This note sets out measurements from patent publication US20170340734A1 (INSERM INSTITUT NATIONAL DE LA SANT ET DE LA RECHERCHE M …, published 2017).

For one assay, the target named is T1, murine AXL (murine, UniProt Q00993 19-443, limits assumed).
T1 construct: also called murine form of AXL
T1 sequence (looked up): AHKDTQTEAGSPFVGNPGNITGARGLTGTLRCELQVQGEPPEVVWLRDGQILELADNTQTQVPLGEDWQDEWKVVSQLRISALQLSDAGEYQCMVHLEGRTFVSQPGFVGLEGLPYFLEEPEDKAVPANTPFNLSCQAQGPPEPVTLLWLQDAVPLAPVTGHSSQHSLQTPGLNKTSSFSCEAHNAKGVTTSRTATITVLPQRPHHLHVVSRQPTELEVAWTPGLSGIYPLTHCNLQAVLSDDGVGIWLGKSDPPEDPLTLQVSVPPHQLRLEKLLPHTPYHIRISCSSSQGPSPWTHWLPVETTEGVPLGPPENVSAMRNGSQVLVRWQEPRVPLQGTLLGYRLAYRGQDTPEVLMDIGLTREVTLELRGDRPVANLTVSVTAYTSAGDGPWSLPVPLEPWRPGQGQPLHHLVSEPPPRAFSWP
Description: not described (FIG. 6).

For the next assay, the target named is T2, human AXL (human, UniProt P30530 26-449, limits assumed).
T2 construct: In the degradation, internalization and homodimerization experiments the receptor stood on the tumor cell surface; also called AXL receptor; human form of AXL
T2 sequence (looked up): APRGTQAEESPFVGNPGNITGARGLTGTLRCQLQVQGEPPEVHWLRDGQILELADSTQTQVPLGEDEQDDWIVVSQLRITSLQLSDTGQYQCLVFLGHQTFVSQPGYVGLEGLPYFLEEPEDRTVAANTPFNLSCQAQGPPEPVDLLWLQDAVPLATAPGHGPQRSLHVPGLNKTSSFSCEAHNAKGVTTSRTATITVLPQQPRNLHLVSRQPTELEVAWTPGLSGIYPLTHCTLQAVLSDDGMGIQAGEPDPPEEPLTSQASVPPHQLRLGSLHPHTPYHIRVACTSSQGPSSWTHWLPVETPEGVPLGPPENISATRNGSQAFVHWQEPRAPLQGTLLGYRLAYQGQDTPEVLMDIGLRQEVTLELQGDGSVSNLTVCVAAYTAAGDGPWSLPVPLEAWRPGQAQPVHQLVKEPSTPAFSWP
The experiment in a line: not described (FIG. 6).

B1: human monoclonal antibody D4 (antibody, V domains shown)
VH: EVQLVESGGSLVKPGGSLRLSCAASGFTFSNYSMNWVRQAPGKGLEWISSISGSSRYIYYADFVKGRFTISRDNATNSLYLQMNSLRAEDTAVYYCVRGRKDSGTIYHWGRGTLVTVSS
VL: QSVLTQPASVSGSPGQSITISCAGTSSDVGGYNYVSWYQQHPGKAPKLMIYEDSKRPSGVSNRFSGSKSGNTASLTISGLQAEDEADYYCKKDDYSLRFTFGGGTKLAVLG
notes: also called D4 antibody; D4 human monoclonal antibody
Regarding B1, the binding result with murine AXL and with human AXL was “binds” throughout.
